The values that follow come from US20240270846A1 (published 2024).

Positions count from the first letter of the chain named. Names may count otherwise.

First the molecules themselves.
B1: GLS3000 Q27R one-arm antibody (H chain CE115HA000) (antibody, human IgG1, kappa, L234A L235A, N297A, name in Kabat numbering)
heavy: QVQLVESGGGVVQPGRSLRLSCAASGFTFSNAWMHWVRQAPGKGLEWVAQIKAKSNNYATYYAESVKGRFTISRDDSKNSLYLQMNSLKTEDTAVYYCRYVHYGAYYGVDAWGQGTTVTVSSASTKGPSVFPLAPSSKSTSGGTAALGCLVKDYFPEPVTVSWNSGALTSGVHTFPAVLQSSGLYSLSSVVTVPSSSLGTQTYICNVNHKPSNTKVDKKVEPKSCDKTHTCPPCPAPEAAGGPSVFLFPPKPKDTLMISRTPEVTCVVVDVSHEDPEVKFNWYVDGVEVHNAKTKPREEQYASTYRVVSVLTVLHQDWLNGKEYKCKVSNKALPAPIEKTISKAKGQPREPQVYTLPPSRCELTKNQVSLSCAVKGFYPSDIAVEWESNGQPENNYKTTPPVLDSDGSFFLVSKLTVDKSRWQQGNVFSCSVMHEALHNHYTQKSLSLSPDYKDDDDK
chain: EPKSSDKTHTCPPCPAPELLGGPSVFLFPPKPKDTLMISRTPEVTCVVVDVSHEDPEVKFNWYVDGVEVHNAKTKPREEQYNSTYRVVSVLTVLHQDWLNGKEYKCKVSNKALPAPIEKTISKAKGQPREPQVCTLPPSRDELTKNQVSLWCLVKGFYPSDIAVEWESNGQPENNYKTTPPVLDSDGSFFLYSKLTVDKSRWQQGNVFSCSVMHEALHNRYTQKSLSLSP
light: DIVMTQSPLSLPVTPGEPASISCRSSRSLVHSNRNTYLHWYQQKPGQAPRLLIYKVSNRFSGVPDRFSGSGSGTDFTLKISRVEAEDVGVYYCGQGTQVPYTFGQGTKLEIKRTVAAPSVFIFPPSDEQLKSGTASVVCLLNNFYPREAKVQWKVDNALQSGNSQESVTEQDSKDSTYSLSSTLTLSKADYEKHKVYACEVTHQGLSSPVTKSFNRGEC
notes: one-arm antibody
B2: GLS3000 R29V one-arm antibody (H chain CE115HA000) (antibody, human IgG1, kappa, L234A L235A, N297A, name in Kabat numbering)
heavy: B1 heavy
chain: B1 chain
light: B1 light with R27Q, R34V
notes: one-arm antibody
B3: GLS3000 R29A one-arm antibody (H chain CE115HA000) (antibody, human IgG1, kappa, L234A L235A, N297A, name in Kabat numbering)
heavy: B1 heavy
chain: B1 chain
light: B1 light with R27Q, R34A
notes: one-arm antibody
B4: GLS3000 R29D one-arm antibody (H chain CE115HA000) (antibody, human IgG1, kappa, L234A L235A, N297A, name in Kabat numbering)
heavy: B1 heavy
chain: B1 chain
light: B1 light with R27Q, R34D
notes: one-arm antibody
B5: GLS3000 R24Y one-arm antibody (H chain CE115HA000) (antibody, human IgG1, kappa, L234A L235A, N297A, name in Kabat numbering)
heavy: B1 heavy
chain: B1 chain
light: B1 light with R24Y, R27Q
notes: one-arm antibody
B6: GLS3000 R54D one-arm antibody (H chain CE115HA000) (antibody, human IgG1, kappa, L234A L235A, N297A, name in Kabat numbering)
heavy: B1 heavy
chain: B1 chain
light: B1 light with R27Q, R59D
notes: one-arm antibody
B7: GLS3000 S25E one-arm antibody (H chain CE115HA000) (antibody, human IgG1, kappa, L234A L235A, N297A, name in Kabat numbering)
heavy: B1 heavy
chain: B1 chain
light: B1 light with S25E, R27Q
notes: one-arm antibody
B8: GLS3000 S25L one-arm antibody (H chain CE115HA000) (antibody, human IgG1, kappa, L234A L235A, N297A, name in Kabat numbering)
heavy: B1 heavy
chain: B1 chain
light: B1 light with S25L, R27Q
notes: one-arm antibody
B9: GLS3000 R29L one-arm antibody (H chain CE115HA000) (antibody, human IgG1, kappa, L234A L235A, N297A, name in Kabat numbering)
heavy: B1 heavy
chain: B1 chain
light: B1 light with R27Q, R34L
notes: one-arm antibody
B10: GLS3000 R24G one-arm antibody (H chain CE115HA000) (antibody, human IgG1, kappa, L234A L235A, N297A, name in Kabat numbering)
heavy: B1 heavy
chain: B1 chain
light: B1 light with R24G, R27Q
notes: one-arm antibody
B11: GLS3000 S25A one-arm antibody (H chain CE115HA000) (antibody, human IgG1, kappa, L234A L235A, N297A, name in Kabat numbering)
heavy: B1 heavy
chain: B1 chain
light: B1 light with S25A, R27Q
notes: one-arm antibody
B12: GLS3000 S25I one-arm antibody (H chain CE115HA000) (antibody, human IgG1, kappa, L234A L235A, N297A, name in Kabat numbering)
heavy: B1 heavy
chain: B1 chain
light: B1 light with S25I, R27Q
notes: one-arm antibody
B13: GLS3000 R29T one-arm antibody (H chain CE115HA000) (antibody, human IgG1, kappa, L234A L235A, N297A, name in Kabat numbering)
heavy: B1 heavy
chain: B1 chain
light: B1 light with R27Q, R34T
notes: one-arm antibody
B14: GLS3000 R24D one-arm antibody (H chain CE115HA000) (antibody, human IgG1, kappa, L234A L235A, N297A, name in Kabat numbering)
heavy: B1 heavy
chain: B1 chain
light: B1 light with R24D, R27Q
notes: one-arm antibody
B15: GLS3000 R24T one-arm antibody (H chain CE115HA000) (antibody, human IgG1, kappa, L234A L235A, N297A, name in Kabat numbering)
heavy: B1 heavy
chain: B1 chain
light: B1 light with R24T, R27Q
notes: one-arm antibody
B16: GLS3000 S25D one-arm antibody (H chain CE115HA000) (antibody, human IgG1, kappa, L234A L235A, N297A, name in Kabat numbering)
heavy: B1 heavy
chain: B1 chain
light: B1 light with S25D, R27Q
notes: one-arm antibody
B17: GLS3000 R29G one-arm antibody (H chain CE115HA000) (antibody, human IgG1, kappa, L234A L235A, N297A, name in Kabat numbering)
heavy: B1 heavy
chain: B1 chain
light: B1 light with R27Q, R34G
notes: one-arm antibody
B18: GLS3000 S25V one-arm antibody (H chain CE115HA000) (antibody, human IgG1, kappa, L234A L235A, N297A, name in Kabat numbering)
heavy: B1 heavy
chain: B1 chain
light: B1 light with S25V, R27Q
notes: one-arm antibody
B19: GLS3000 R54A one-arm antibody (H chain CE115HA000) (antibody, human IgG1, kappa, L234A L235A, N297A, name in Kabat numbering)
heavy: B1 heavy
chain: B1 chain
light: B1 light with R27Q, R59A
notes: one-arm antibody
B20: GLS3000 S25T one-arm antibody (H chain CE115HA000) (antibody, human IgG1, kappa, L234A L235A, N297A, name in Kabat numbering)
heavy: B1 heavy
chain: B1 chain
light: B1 light with S25T, R27Q
notes: one-arm antibody
B21: GLS3000 S25P one-arm antibody (H chain CE115HA000) (antibody, human IgG1, kappa, L234A L235A, N297A, name in Kabat numbering)
heavy: B1 heavy
chain: B1 chain
light: B1 light with S25P, R27Q
notes: one-arm antibody
B22: GLS3000 R24P one-arm antibody (H chain CE115HA000) (antibody, human IgG1, kappa, L234A L235A, N297A, name in Kabat numbering)
heavy: B1 heavy
chain: B1 chain
light: B1 light with R24P, R27Q
notes: one-arm antibody
B23: GLS3000 R24S one-arm antibody (H chain CE115HA000) (antibody, human IgG1, kappa, L234A L235A, N297A, name in Kabat numbering)
heavy: B1 heavy
chain: B1 chain
light: B1 light with R24S, R27Q
notes: one-arm antibody
B24: GLS3000 R24A one-arm antibody (H chain CE115HA000) (antibody, human IgG1, kappa, L234A L235A, N297A, name in Kabat numbering)
heavy: B1 heavy
chain: B1 chain
light: B1 light with R24A, R27Q
notes: one-arm antibody
B25: GLS3000 R24Q one-arm antibody (H chain CE115HA000) (antibody, human IgG1, kappa, L234A L235A, N297A, name in Kabat numbering)
heavy: B1 heavy
chain: B1 chain
light: B1 light with R24Q, R27Q
notes: one-arm antibody
B26: GLS3000 R29S one-arm antibody (H chain CE115HA000) (antibody, human IgG1, kappa, L234A L235A, N297A, name in Kabat numbering)
heavy: B1 heavy
chain: B1 chain
light: B1 light with R27Q, R34S
notes: one-arm antibody
B27: GLS3000 R29I one-arm antibody (H chain CE115HA000) (antibody, human IgG1, kappa, L234A L235A, N297A, name in Kabat numbering)
heavy: B1 heavy
chain: B1 chain
light: B1 light with R27Q, R34I
notes: one-arm antibody
B28: GLS3000 R29Y one-arm antibody (H chain CE115HA000) (antibody, human IgG1, kappa, L234A L235A, N297A, name in Kabat numbering)
heavy: B1 heavy
chain: B1 chain
light: B1 light with R27Q, R34Y
notes: one-arm antibody
B29: GLS3000 S25M one-arm antibody (H chain CE115HA000) (antibody, human IgG1, kappa, L234A L235A, N297A, name in Kabat numbering)
heavy: B1 heavy
chain: B1 chain
light: B1 light with S25M, R27Q
notes: one-arm antibody
B30: GLS3000 R29P one-arm antibody (H chain CE115HA000) (antibody, human IgG1, kappa, L234A L235A, N297A, name in Kabat numbering)
heavy: B1 heavy
chain: B1 chain
light: B1 light with R27Q, R34P
notes: one-arm antibody
B31: GLS3000 R24E one-arm antibody (H chain CE115HA000) (antibody, human IgG1, kappa, L234A L235A, N297A, name in Kabat numbering)
heavy: B1 heavy
chain: B1 chain
light: B1 light with R24E, R27Q
notes: one-arm antibody

The target in this assay is T1, CD3 epsilon homodimer protein (UniProt P07766 23-126).
T1 construct: also called CD3 (CD3 epsilon)
T1 sequence (P07766 23-126): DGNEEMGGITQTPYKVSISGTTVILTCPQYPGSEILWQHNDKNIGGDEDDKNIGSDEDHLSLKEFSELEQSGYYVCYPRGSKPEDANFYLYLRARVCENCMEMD
Kind of assay: SPR, CD3e homodimer on chip.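 Further: surface plasmon resonance at 25 degrees C, antibodies flowed as analyte over CD3 epsilon homodimer amine-coupled to a CM4 chip, running buffer HBS-EP+.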
Consider B1, for which the “ratio of amounts bound (altered form / unaltered GLS3000 antibody)” value worked out at 1.19. For B2, the “ratio of amounts bound (altered form / unaltered GLS3000 antibody)” value came out at 0.34. The same measure for B3: 0.63; for B4: 0.41; for B5: 0.87.

Turning to B6, the “ratio of amounts bound (altered form / unaltered GLS3000 antibody)” value came out at 0.36. The same measure for B7: 0.21. For B8 the value was 0.24; for B9, 0.56; for B10, 0.89. The same measure for B11: 0.92; for B12: 0.53; for B13: 0.63. Consider B14, for which the “ratio of amounts bound (altered form / unaltered GLS3000 antibody)” value amounted to 0.75. For B15 the value was 0.88; for B16, 0.18; for B17, 0.67. The same measure for B18: 0.73; for B19: 0.69. The same measure for B20: 0.83. On to B21, for which the “ratio of amounts bound (altered form / unaltered GLS3000 antibody)” value came to 1.01. The same measure for B22: 0.7; for B23: 0.89; for B24: 0.86. For B25 the value was 0.9. The same measure for B26: 0.68; for B27: 0.37; for B28: 0.69. For the molecule B29, the “ratio of amounts bound (altered form / unaltered GLS3000 antibody)” value came to 0.31. For B30 the value was 0.31. The same measure for B31: 0.83.
